T1: DUE-B binding to dsDNA derived from the DUE sequence (Homo sapiens, UniProt Q8TEA8)
T1 construct: 6his (N); V5 (N); made in house; host or cells: baculovirus / SF9 insect cells
T1 sequence (Q8TEA8 1-209): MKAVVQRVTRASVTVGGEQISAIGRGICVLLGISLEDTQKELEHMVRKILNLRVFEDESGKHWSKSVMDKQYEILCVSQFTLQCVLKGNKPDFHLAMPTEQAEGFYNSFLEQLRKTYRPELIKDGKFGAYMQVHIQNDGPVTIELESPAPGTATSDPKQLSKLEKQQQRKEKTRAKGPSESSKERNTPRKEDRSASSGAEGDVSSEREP

B1: DUE-B: human DNA Unwinding Element binding protein (SEQ ID NO:2), baculovirus expressed, binds the c-myc replication origin DUE (protein, listed as Homo sapiens)
chain: T1 sequence (Q8TEA8 1-209)

Columns and labels:
[1] = target: T1, DUE-B binding to dsDNA derived from the DUE sequence; assay: Fluorescence polarization assay of DUE-B binding to dsDNA
From the text: Described herein is the first generation of a novel assay for determining the effects of molecules on the association of DUE-B with double stranded DNA (dsDNA). This assay uses fluorescence polarization to measure the interaction of DUE-B with dsDNA. This assay consists of 4 components: • a) a dsDNA derived from the DUE sequence:
• Both the sense and antisense strands are labeled with FITC at the 3′ end using a 6 carbon spacer. • b) Purified DUE-B. Human DUE-B tagged at the amino terminus with the 6his and V5 tags is synthesized in baculovirus and purified using Ni^2+-Sepharose™ chromatography. • c) Reaction buffer (1×): […] Tris HCl (pH 7.5), 800 mM NaCl, 10 mM EDTA, 100 mM β-mercaptoethanol, 1% (w/v) Tween-20™. • d) Fluorescence polarization plate reader (Tecan Polarion™ or other equivalent device)
A mastermix is prepared consisting of 1× reaction buffer, 2 nM labeled oligo and 0.125 or 0.250 ug DUE-B per 100 ul of mastermix. Compounds (in this case steroids) are added to the bottom of a 96 well plate. 100 ul of mastermix is added to each well and allowed to equilibrate for 30 sec. Fluorescence polarization is then measured.
In FIG. 23A, the effect of increasing concentrations of DUE-B on the polarization of dsDNA was assessed. As expected, polarization of the dsDNA becomes saturated as the DUE-B protein concentration increases. […]

[2] = test system: DNA replication in Xenopus oocyte extract; assay: Replication in Xenopus oocyte extracts; format: biochemical, Xenopus laevis
[3] = ATPase activity by thin layer chromatography; format: biochemical
Method: In FIG. 11, DUE-B expressed in baculovirus infected insect cells was chromotographed as in FIG. 8. To locate the eluted DUE-B, fractions were assayed by ELISA using DUE-B antibody or 6his antibody. ATPase activity was monitored by thin layer chromatography of alternate fractions incubated with gamma-^32P-ATP. […] In FIG. 12, time courses of ATPase activity were measured for three concentrations of DUE-B protein.
Purified DUE-B (200-1000 ng) expressed in bacteria or insect cells, or cell extracts from HeLa cells (˜500 ng) or Xenopus oocytes (˜500 ng), were chromatographed on a one-meter Sephacryl™ S-200 column. Protein elution was monitored by Western blot or by ELISA using antibodies to DUE-B or the his6 tag. ATPase activity was monitored by thin layer chromatography on PEI cellulose (Patrick, S. M., et al., Biochem. Biophys. Acta 1354:279-290, 1997). RNA was isolated using an RNAeasy kit (Qiagen) and DUE-B mRNA expression was monitored by Northern blotting of total RNA electrophoresed on denaturing formaldehyde/agarose gels using a DUE-B cDNA probe labeled with alpha-^32P-dCTP by random primer extension.

| Molecule | effect on the dsDNA binding of DUE-B on retest ([1]; retest in two different concentrations of DUE-B, FIG. 24B) | increase in polarization of dsDNA by DUE-B ([1]; steroid at 10 uM, FIG. 24A) | effect on DNA replication, time course ([2]; double stranded DNA preincubated in extract, DUE-B added with alpha-32P-dCTP, FIG. 18A) | effect on replication of single stranded DNA ([2]; oocyte extract, FIG. 20D) | effect on replication of sperm chromatin ([2]; preincubated 30' with the extract versus added simultaneously with sperm chromatin, FIG. 19) | effect on MCM7 loading (pre-RC formation) on chromatin ([2]; sperm chromatin, anti-MCM7 immunoblot, FIG. 20C) | ATPase activity ([3]; baculovirus expressed DUE-B, FIG. 12) | ATP hydrolyzed ([3]; present assay conditions) |
| --- | --- | --- | --- | --- | --- | --- | --- | --- |
| C[C@]12CC[C@@H]3c4ccc(O)cc4CC[C@H]3[C@@H]1CC(O)C2O (some centres unmarked) [Steroid E2850, 1,3,5(10)-estratrien-3,16,17-triol] | stimulatory effect of E2850 was duplicated | 100% |  |  |  |  |  |  |
| B1 |  |  | transiently inhibited DNA replication | does not inhibit replication of single stranded DNA | more effective at inhibiting replication | does not inhibit MCM7 loading | approximately 30 fmol gamma-32P-ATP hydrolyzed | > 0.5 fmol ATP per minute per fmol protein |
